# In patent publication US20230372419A1, “LIVE BIOTHERAPEUTICS SECRETING SYNTHETIC BACTERIOPHAGES IN THE TREATMENT OF CANCER” (TATUM BIOSCIENCE INC., priority 2020, published 2023):
# T1: CD47 on the surface of A20 mouse lymphoma cells (mouse (A20 mouse lymphoma cells), UniProt Q61735 19-303)
# T1 construct: whole, on cells; also called CD47 receptor; CD47 immune checkpoint
# T1 sequence (looked up): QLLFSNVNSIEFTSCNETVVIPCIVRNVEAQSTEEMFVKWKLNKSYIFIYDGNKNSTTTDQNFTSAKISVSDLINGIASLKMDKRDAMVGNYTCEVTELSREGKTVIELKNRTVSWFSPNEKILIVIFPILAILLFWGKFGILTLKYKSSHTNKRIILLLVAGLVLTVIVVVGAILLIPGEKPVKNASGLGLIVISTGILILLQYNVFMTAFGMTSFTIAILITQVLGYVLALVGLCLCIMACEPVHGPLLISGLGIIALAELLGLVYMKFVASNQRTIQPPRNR
# Assays:
# [1] = target: T1, CD47 on the surface of A20 mouse …; test: pull-down assay on A20 cells
# [2] = target: T2, mice CTLA-4 recombinant protein (R&D systems) (mice, UniProt P09793 36-161); test: ELISA on coated mouse CTLA-4, detection with anti-pVIII-HRP
# T2 construct: Coated on ELISA plates at 10 µg/mL; also called recombinant CTLA-4 protein; CTLA-4 immune checkpoint
# [3] = target: T3, PD-L1 on the surface of A20 cells (mouse (A20 mouse lymphoma cells), UniProt Q9EP73 19-290); test: flow cytometry on A20 cells, competition with anti-PD-L1-PE (10F.9G2)
# T3 construct: whole, on cells; also called PD-L1 receptor; CD274
# PD-L1 on A20 cells = target: T4, PD-L1 on A20 cells (Mus musculus, UniProt Q9EP73); test: Binding to PD-L1 on fixed A20 cells by ELISA; details: nanobody 1 nM to 10 μM, detection anti-HA-HRP
# T4 construct: host or cells: A20 mouse B lymphoma cells (live for flow cytometry, formalin-fixed for ELISA)
# Protocol: Assessment of anti-PD-L1 displaying bacteriophages binding activity on A20 cells by EUSA. A 96 wells plate was prepared by adding in each well 100 μL of PBS comprising 1×10^5 A20 cells. The plate was then incubated 30 min to allow sedimentation of the cells. The plate was then tilted and the PBS was carefully removed. To fix the cells to the plate, 100 μL of 10% formalin was then added, and the plate was incubated for 10 min. The fixed cells were then washed gently with 100 μL of PBS and then blocked by adding 200 μL of PBS (1% BSA, 3% milk), followed a 30 min incubation periode. The blocking buffer was removed and then 100 μL of bacteriophage PEG preparation was added to the wells. The plate was incubated 1 h and then washed three times with 200 μL of PBS. To detect the bacteriophages, 100 μL of anti-HA-HRP (Cell Signaling) 1/500 diluted in PBS (3% milk, 1% BSA) was added and the plate was incubated for 1 h. […] Then, 100 μL from each well was transferred to a new plate and optical density was measured at 450 nm.
# Assessment of anti-PD-L1 nanobody binding activity on A20 cells by EISA. […] Then, 100 μL from each well was transferred to a new plate and optical density was measured at 450 nm. […] Tumor sizes were then monitored twice a week using a precise caliper until tumors exceed 1500 mm^3 or until day 24 after the first injection. […]
# [4] = target: T3, PD-L1 on the surface of A20 cells; test: ELISA on fixed A20 cells, detection with anti-HA-HRP
# T3 sequence (Q9EP73 19-290): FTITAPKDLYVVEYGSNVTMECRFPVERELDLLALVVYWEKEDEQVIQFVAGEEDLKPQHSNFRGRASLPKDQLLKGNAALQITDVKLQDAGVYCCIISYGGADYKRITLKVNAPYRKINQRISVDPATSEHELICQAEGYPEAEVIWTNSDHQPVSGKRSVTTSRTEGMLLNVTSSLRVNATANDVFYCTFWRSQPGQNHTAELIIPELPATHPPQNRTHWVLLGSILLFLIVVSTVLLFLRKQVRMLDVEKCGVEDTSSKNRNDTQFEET
# T4 sequence (Q9EP73 19-290): as above
molecule,measurement,setting,value
"synthetic bacteriophage displaying an anti-CD47 nanobody on pIII (MG1655+pTAT004+pTAT003) (other, not shown: small tags and cut ends; large carriers, also called pTAT003 derived bacteriophages; nbCD47-pIII bacteriophages) QVQLVESGGGLVEPGGSLRLSCAASGIIFKINDMGWYRQAPGKRREWVAASTGGDEAIYRDSVKDRFTISRDAKNSVFLQMNSLKPEDTAVYYCTAVISTDRDGTEWRRYWGQGTQVTVSSGGLPETGG",binding result,[1],binds
"synthetic bacteriophage displaying an anti-CTLA-4 anticalin on pIII (MG1655+pTAT004+pTAT030) (other, Whole phage particle; not shown: HA-6His dual tag linker; C-terminal fragment of coat protein pIII (gpIII-C) of bacteriophage M13) QDSTSDLIPAPPLSKVPLQQNFQDNQFHGKWYVVGLAGNRILRDDQHPMNMYATIYELKEDKSYNVTSVISSHKKCEYTIATFVPGSQPGEFTLGNIKSYGDKTSYLVRVVSTDYNQYAMVFFKLAEDNAEFFAITIYGRTKELASELKENFIRFSKSLGLPENHIVFPVPIDQCIDG",binding result,[2],binds
"synthetic bacteriophage displaying an anti-PD-L1 nanobody on pIII (MG1655+pTAT004+pTAT020) (other, Whole phage particle; also called anti-PD-L1 synthetic bacteriophage; not shown: HA-6His dual tag linker; C-terminal fragment of coat protein pIII (gpIII-C) of bacteriophage M13) QVQLVETGGGLVQPGGSLRLSCTASGFTFSMHAMTWYRQAPGKQRELVAVITSHGDRANYTDSVRGRFTISRDNTKNMVYLQMNSLKPEDTAVYYCNVPRYDSWGQGTQVTVSSGGLPETGG",binding result,[3],binds
"purified anti-PD-L1 nanobody: purified anti-PD-L1 nanobody with hexahistidine and HA tags, expressed in BL21 (DE3) (protein, left off: small tags and cut ends) VHH: QVQLVETGGGLVQPGGSLRLSCTASGFTFSMHAMTWYRQAPGKQRELVAVITSHGDRANYTDSVRGRFTISRDNTKNMVYLQMNSLKPEDTAVYYCNVPRYDSWGQGTQVTVSSGGLPETGG",purified nanobody binding activity on A20 cells (ELISA),PD-L1 on A20 cells,confirmed its binding activity on A20 cells
"synthetic bacteriophage displaying the anti-PD-L1 nanobody inserted between the binding domain and the bacteriophage anchor domain of pIII (MG1655+pTAT033) (other, Single-vector system derived from M13mp18-Kan; whole phage particle, remained infectious; also called anti-PD-L1 nanobody inserted in pIII; not shown: N-terminal part of pIII (D1/D2 domains) of bacteriophage M13; C-terminal part of pIII (gpIII-C, transmembrane region / anchor domain) of bacteriophage M13) QVQLVETGGGLVQPGGSLRLSCTASGFTFSMHAMTWYRQAPGKQRELVAVITSHGDRANYTDSVRGRFTISRDNTKNMVYLQMNSLKPEDTAVYYCNVPRYDSWGQGTQVTVSSGGLPETGG",binding result,[3],binds
"synthetic bacteriophage displaying the anti-PD-L1 nanobody at the N-terminal end of pIII (MG1655+pTAT032) (other, Single-vector system derived from M13mp18-Kan; also called pTAT32; anti-PD-L1 nanobody on pIII; not shown: C-terminal fragment of coat protein pIII (gpIII-C) of bacteriophage M13) QVQLVETGGGLVQPGGSLRLSCTASGFTFSMHAMTWYRQAPGKQRELVAVITSHGDRANYTDSVRGRFTISRDNTKNMVYLQMNSLKPEDTAVYYCNVPRYDSWGQGTQVTVSSGGLPETGG",binding result,[3],binds
"purified anti-PD-L1 nanobody with hexahistidine and HA tags fused in C-terminal (VHH, Expressed from the pTrcHis vector in E. coli BL21 (DE3), purified on Ni-NTA; also called nbPDL1 (pTAT034); not shown: hexahistidine and HA tags fused in C-terminal) VHH: QVQLVETGGGLVQPGGSLRLSCTASGFTFSMHAMTWYRQAPGKQRELVAVITSHGDRANYTDSVRGRFTISRDNTKNMVYLQMNSLKPEDTAVYYCNVPRYDSWGQGTQVTVSS",binding result,[4],binds
